# Test results published in patent US20130116129.
# Columns and labels:
# mouse IgG (Mus musculus) = experiment: SELEX
# [1] = system: rat IgG (Rattus norvegicus); experiment: SELEX; details: uppercase RNA, lowercase DNA
sequence,measurement,setting,value
CGAUAGGUGUUGAGGGCGAUCUCAGCGCUUGUUG [T1-GGCGAT],binding signal,"mouse IgG (Mus musculus); beads alone 155, p=0.037, 37 C",691 reads
CGAUAGGUGUUGAGGGGUAUCUCAGCGCUUGUUG [T1-GGGTAT],binding signal,"mouse IgG (Mus musculus); beads alone 37, p=0.039, 37 C",787 reads
CGAUAGGUGUUGAGGUGGAUCUCAGCGCUUGUUG [T1-GTGGAT],binding signal,"mouse IgG (Mus musculus); beads alone 24, p=0.014, 37 C, library assigned to SEQ 2 from six-base random region",1560 reads
CGAUAGGUGUUGAGGUGGGUCUCAGCGCUUGUUG [T1-GTGGGT],binding signal,"mouse IgG (Mus musculus); beads alone 136, p=0.024, 37 C",730 reads
CGAUAGGUGUUGAGGUUGGUCUCAGCGCUUGUUG [T1-GTTGGT],binding signal,"mouse IgG (Mus musculus); beads alone 25, p=0.035, 37 C",605 reads
CGAUAGGUGUUGAGUGGGCUCUCAGCGCUUGUUG [T1-TGGGCT],binding signal,"mouse IgG (Mus musculus); beads alone 78, p=0.014, before selection 201, p=0.123, 37 C",605 reads
CGAUAGGUGUUGAGUUCGAUCUCAGCGCUUGUUG [T1-TTCGAT],binding signal,"mouse IgG (Mus musculus); beads alone 44, p=0.019, 37 C",548 reads
CGAUAGGUGUUGAGUUGGUUCUCAGCGCUUGUUG [T1-TTGGTT],binding signal,"mouse IgG (Mus musculus); beads alone 23, p=0.048, 37 C",713 reads
CGCCTCTCCGAGAGTGTAGGGCAUACAUTCTUGGAGAGGUG [T3-AGGGCAT],binding signal,[1]; protein G beads 3,106 reads
same,binding signal,"mouse IgG (Mus musculus); uppercase RNA, lowercase DNA, protein G beads 3",18 reads
CGCCTCTCCGAGAGTGTAUUAACCACAUTCTUGGAGAGGUG [T3-ATTAACC],binding signal,[1]; below protein G bead background of 78,25 reads
same,binding signal,"mouse IgG (Mus musculus); uppercase RNA, lowercase DNA, protein G beads 78, 150 mM NaCl, 10 mM MgCl2",3120 reads
